# Source: US20230192837A1 (published 2023)
# Substitutions are numbered along the chain they refer to.
# B1: Ab3 (antibody, human IgG1, kappa, V domains shown)
# VH: QVQLVQSGAEVKKPGASVKVSCKASGYTFTGYYMHWVRQAPGQGLEWMGWINPYTGGTKYAQKFQGRVTMTRDTSISTAYMELSRLRSDDTAVYYCARDLYGSSNYGMDVWGQGTTVTVSS
# VL: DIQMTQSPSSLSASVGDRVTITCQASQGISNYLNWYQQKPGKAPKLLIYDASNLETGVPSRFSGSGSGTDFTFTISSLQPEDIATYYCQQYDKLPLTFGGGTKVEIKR
# B2: Ab5 (antibody, human IgG1, kappa, V domains shown)
# VH: B1 VH
# VL: DIQMTQSPSSLSASVGDRVTITCQASQGIRNYLNWYQQKPGKAPKLLIYDASNLETGVPSRFSGSGSGTDFTFTISSLQPEDIATYYCQQYDKLPLTFGGGTKVEIKR
# B3: Ab4 (antibody, human IgG1, kappa, V domains shown)
# VH: B1 VH
# VL: not shown
# B4: Ab2 (antibody, human IgG1, kappa, V domains shown)
# VH: B1 VH with M34I, K59N
# VL: not shown
# B5: Ab1 (antibody, human IgG1, kappa, V domains shown)
# VH: B1 VH with M34I, K59N, M108G
# VL: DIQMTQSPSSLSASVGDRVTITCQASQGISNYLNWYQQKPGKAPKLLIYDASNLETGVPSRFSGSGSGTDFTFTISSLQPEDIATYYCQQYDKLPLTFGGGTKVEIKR
# notes: Human IgG1 with kappa light chain, expressed in CHO cells; also called exemplified anti-human TNFα antibody Ab1
# Target: cynomolgus monkey TNFα (cynomolgus monkey, UniProt P79337 57-233, limits assumed)
# Assay: cell-based or functional assay
# Chain of cynomolgus monkey TNFα (P79337 57-233 limits assumed, form in doubt): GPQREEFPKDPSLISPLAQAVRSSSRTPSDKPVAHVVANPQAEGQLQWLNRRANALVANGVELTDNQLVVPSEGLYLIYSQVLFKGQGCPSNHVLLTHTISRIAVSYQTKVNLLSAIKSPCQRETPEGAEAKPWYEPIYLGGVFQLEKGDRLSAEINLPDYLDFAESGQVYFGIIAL
row,Binder,IC50 of inhibition of soluble cynomolgus monkey TNFα induced cell killing of L929 cells
1,B1,0.02 µg/mL
2,B2,0.03 µg/mL
3,B3,0.02 µg/mL
4,B4,0.02 µg/mL
5,B5,0.02 µg/mL

# Target: T1, human TNFα (human, UniProt P01375 57-233, limits assumed)
# Assay: cell-based or functional assay
# T1 sequence (P01375 57-233 limits assumed, form in doubt): as the sequence (P79337 57-233 limits assumed, form in doubt) above, with K9R, P11L, V57L, T64R, N92T, L158R counted along it
row,Binder,IC50 of inhibition of soluble human TNFα induced cell killing of L929 cells
1,B1,0.19 µg/mL
2,B2,0.22 µg/mL
3,B3,0.19 µg/mL
4,B4,0.13 µg/mL
5,B5,0.16 µg/mL

# Target: membrane human TNFα (non-cleavable TNFα) expressed on CHO cells (human, UniProt P01375 1-233)
# Assay: cell-based or functional assay
row,Binder,IC50 of inhibition of membrane TNFα-induced cell killing of L929 cells
1,B2,0.2 µg/mL

# Target: T1, human TNFα
# Assay: cell-based or functional assay
# Remark: another data set of the same source
Binder,"% Inhibition of human TNFα-induced plasma CXCL1 in C57/B6 mice, dose 0.3 mg/kg","% Inhibition of human TNFα-induced plasma CXCL1 in C57/B6 mice, dose 3 mg/kg"
B1,64.4%,86.6%
B2,49.8%,84.3%
B3,57.2%,92.6%
B4,46.5%,82.1%
B5,63%,83.9%

# Target: T2, rhesus macaque TNFα (rhesus macaque, UniProt P48094 77-233)
# T2 construct: Bought (R&D Systems, Cat #1070-RM); also called rhesus macaque monkey TNFα
# Assay: antigen-down ELISA, TNFα coated on plate, anti-human kappa-AP detection
# Experimental: Once the color developed (approximately 15-30 min), plates were read at 560 nm OD on a Molecular Device Spectramax plate reader and data was acquired using Softmax Pro 4.7 software. Data analysis was performed in GraphPad Prism.
# T2 sequence (P48094 77-233 limits assumed): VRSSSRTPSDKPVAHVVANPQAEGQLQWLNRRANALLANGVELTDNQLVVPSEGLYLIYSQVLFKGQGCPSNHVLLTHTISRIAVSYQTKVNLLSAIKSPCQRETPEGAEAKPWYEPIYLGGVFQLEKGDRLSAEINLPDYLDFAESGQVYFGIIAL
row,Binder,EC50
1,B5,0.155 µg/mL
